According to publication PMC7367873, “Dissecting the sequence determinants for dephosphorylation by the catalytic subunits of phosphatases PP1 and PP2A” (Nature Communications, 2020):

B1: MAP4 (protein, UniProt P27816 2-1152, looked up)
Microtubule-associated …: ADLSLADALTEPSPDIEGEIKRDFIATLEAEAFDDVVGETVGKTDYIPLLDVDEKTGNSESKKKPCSETSQIEDTPSSKPTLLANGGHGVEGSDTTGSPTEFLEEKMAYQEYPNSQNWPEDTNFCFQPEQVVDPIQTDPFKMYHDDDLADLVFPSSATADTSIFAGQNDPLKDSYGMSPCNTAVVPQGWSVEALNSPHSESFVSPEAVAEPPQPTAVPLELAKEIEMASEERPPAQALEIMMGLKTTDMAPSKETEMALAKDMALATKTEVALAKDMESPTKLDVTLAKDMQPSMESDMALVKDMELPTEKEVALVKDVRWPTETDVSSAKNVVLPTETEVAPAKDVTLLKETERASPIKMDLAPSKDMGPPKENKKETERASPIKMDLAPSKDMGPPKENKIVPAKDLVLLSEIEVAQANDIISSTEISSAEKVALSSETEVALARDMTLPPETNVILTKDKALPLEAEVAPVKDMAQLPETEIAPAKDVAPSTVKEVGLLKDMSPLSETEMALGKDVTPPPETEVVLIKNVCLPPEMEVALTEDQVPALKTEAPLAKDGVLTLANNVTPAKDVPPLSETEATPVPIKDMEIAQTQKGISEDSHLESLQDVGQSAAPTFMISPETVTGTGKKCSLPAEEDSVLEKLGERKPCNSQPSELSSETSGIARPEEGRPVVSGTGNDITTPPNKELPPSPEKKTKPLATTQPAKTSTSKAKTQPTSLPKQPAPTTIGGLNKKPMSLASGLVPAAPPKRPAVASARPSILPSKDVKPKPIADAKAPEKRASPSKPASAPASRSGSKSTQTVAKTTTAAAVASTGPSSRSPSTLLPKKPTAIKTEGKPAEVKKMTAKSVPADLSRPKSTSTSSMKKTTTLSGTAPAAGVVPSRVKATPMPSRPSTTPFIDKKPTSAKPSSTTPRLSRLATNTSAPDLKNVRSKVGSTENIKHQPGGGRAKVEKKTEAAATTRKPESNAVTKTAGPIASAQKQPAGKVQIVSKKVSYSHIQSKCGSKDNIKHVPGGGNVQIQNKKVDISKVSSKCGSKANIKHKPGGGDVKIESQKLNFKEKAQAKVGSLDNVGHLPAGGAVKTEGGGSEAPLCPGPPAGEEPAISEAAPEAGAPTSASGLNGHPTLSGGGDQREAQTLDSQIQETSI
B2: BRIX1 (protein, UniProt Q8TDN6 1-353, looked up)
Ribosome biogenesis protein …: MAATKRKRRGGFAVQAKKPKRNEIDAEPPAKRHATAEEVEEEERDRIPGPVCKGKWKNKERILIFSSRGINFRTRHLMQDLRMLMPHSKADTKMDRKDKLFVINEVCEMKNCNKCIYFEAKKKQDLYMWLSNSPHGPSAKFLVQNIHTLAELKMTGNCLKGSRPLLSFDPAFDELPHYALLKELLIQIFSTPRYHPKSQPFVDHVFTFTILDNRIWFRNFQIIEEDAALVEIGPRFVLNLIKIFQGSFGGPTLYENPHYQSPNMHRRVIRSITAAKYREKQQVKDVQKLRKKEPKTLLPHDPTADVFVTPAEEKPIEIQWVKPEPKVDLKARKKRIYKRQRKMKQRMDSGKTK
B3: FARSA (protein, UniProt Q9Y285 2-508, looked up)
Phenylalanine--tRNA ligase …: ADGQVAELLLRRLEASDGGLDSAELAAELGMEHQAVVGAVKSLQALGEVIEAELRSTKHWELTAEGEEIAREGSHEARVFRSIPPEGLAQSELMRLPSGKVGFSKAMSNKWIRVDKSAADGPRVFRVVDSMEDEVQRRLQLVRGGQAEKLGEKERSELRKRKLLAEVTLKTYWVSKGSAFSTSISKQETELSPEMISSGSWRDRPFKPYNFLAHGVLPDSGHLHPLLKVRSQFRQIFLEMGFTEMPTDNFIESSFWNFDALFQPQQHPARDQHDTFFLRDPAEALQLPMDYVQRVKRTHSQGGYGSQGYKYNWKLDEARKNLLRTHTTSASARALYRLAQKKPFTPVKYFSIDRVFRNETLDATHLAEFHQIEGVVADHGLTLGHLMGVLREFFTKLGITQLRFKPAYNPYTEPSMEVFSYHQGLKKWVEVGNSGVFRPEMLLPMGLPENVSVIAWGLSLERPTMIKYGINNIRELVGHKVNLQMVYDSPLCRLDAEPRPPPTQEAA
B4: SPATS2 (protein, UniProt Q86XZ4 1-545, looked up)
Spermatogenesis-associated …: MSRKQNQKDSSGFIFDLQSNTVLAQGGAFENMKEKINAVRAIVPNKSNNEIILVLQHFDNCVDKTVQAFMEGSASEVLKEWTVTGKKKNKKKKNKPKPAAEPSNGIPDSSKSVSIQEEQSAPSSEKGGMNGYHVNGAINDTESVDSLSEGLETLSIDARELEDPESAMLDTLDRTGSMLQNGVSDFETKSLTMHSIHNSQQPRNAAKSLSRPTTETQFSNMGMEDVPLATSKKLSSNIEKSVKDLQRCTVSLARYRVVVKEEMDASIKKMKQAFAELESCLMDREVALLAEMDKVKAEAMEILLSRQKKAELLKKMTHVAVQMSEQQLVELRADIKHFVSERKYDEDLGRVARFTCDVETLKKSIDSFGQVSHPKNSYSTRSRCSSVTSVSLSSPSDASAASSSTCASPPSLTSANKKNFAPGETPAAIANSSGQPYQPLREVLPGNRRGGQGYRPQGQKSNDPMNQGRHDSMGRYRNSSWYSSGSRYQSAPSQAPGNTIERGQTHSAGTNGTGVSMEPSPPTPSFKKGLPQRKPRTSQTEAVNS
B5: DNTTIP2 (protein, UniProt Q5QJE6 1-756, looked up)
Deoxynucleotidyltransferase …: MVVTRSARAKASIQAASAESSGQKSFAANGIQAHPESSTGSDARTTAESQTTGKQSLIPRTPKARKRKSRTTGSLPKGTEPSTDGETSEAESNYSVSEHHDTILRVTRRRQILIACSPVSSVRKKPKVTPTKESYTEEIVSEAESHVSGISRIVLPTEKTTGARRSKAKSLTDPSQESHTEAISDAETSSSDISFSGIATRRTRSMQRKLKAQTEKKDSKIVPGNEKQIVGTPVNSEDSDTRQTSHLQARSLSEINKPNFYNNDFDDDFSHRSSENILTVHEQANVESLKETKQNCKDLDEDANGITDEGKEINEKSSQLKNLSELQDTSLQQLVSQRHSTPQNKNAVSVHSNLNSEAVMKSLTQTFATVEVGRWNNNKKSPIKASDLTKFGDCGGSDDEEESTVISVSEDMNSEGNVDFECDTKLYTSAPNTSQGKDNSVLLVLSSDESQQSENSENEEDTLCFVENSGQRESLSGDTGSLSCDNALFVIDTTPGMSADKNFYLEEEDKASEVAIEEEKEEEEDEKSEEDSSDHDENEDEFSDEEDFLNSTKAKLLKLTSSSIDPGLSIKQLGGLYINFNADKLQSNKRTLTQIKEKKKNELLQKAVITPDFEKNHCVPPYSESKYQLQKKRRKERQKTAGDGWFGMKAPEMTNELKNDLKALKMRASMDPKRFYKKNDRDGFPKYFQIGTIVDNPADFYHSRIPKKQRKRTIVEELLADSEFRRYNRRKYSEIMAEKAANAAGKKFRKKKKFRN
B6: DHX15 (protein, UniProt O43143 1-795, looked up)
ATP-dependent RNA helicase …: MSKRHRLDLGEDYPSGKKRAGTDGKDRDRDRDREDRSKDRDRERDRGDREREREKEKEKELRASTNAMLISAGLPPLKASHSAHSTHSAHSTHSTHSAHSTHAGHAGHTSLPQCINPFTNLPHTPRYYDILKKRLQLPVWEYKDRFTDILVRHQSFVLVGETGSGKTTQIPQWCVEYMRSLPGPKRGVACTQPRRVAAMSVAQRVADEMDVMLGQEVGYSIRFEDCSSAKTILKYMTDGMLLREAMNDPLLERYGVIILDEAHERTLATDILMGVLKEVVRQRSDLKVIVMSATLDAGKFQIYFDNCPLLTIPGRTHPVEIFYTPEPERDYLEAAIRTVIQIHMCEEEEGDLLLFLTGQEEIDEACKRIKREVDDLGPEVGDIKIIPLYSTLPPQQQQRIFEPPPPKKQNGAIGRKVVVSTNIAETSLTIDGVVFVIDPGFAKQKVYNPRIRVESLLVTAISKASAQQRAGRAGRTRPGKCFRLYTEKAYKTEMQDNTYPEILRSNLGSVVLQLKKLGIDDLVHFDFMDPPAPETLMRALELLNYLAALNDDGDLTELGSMMAEFPLDPQLAKMVIASCDYNCSNEVLSITAMLSVPQCFVRPTEAKKAADEAKMRFAHIDGDHLTLLNVYHAFKQNHESVQWCYDNFINYRSLMSADNVRQQLSRIMDRFNLPRRSTDFTSRDYYINIRKALVTGYFMQVAHLERTGHYLTVKDNQVVQLHPSTVLDHKPEWVLYNEFVLTTKNYIRTCTDIKPEWLVKIAPQYYDMSNFPQCEAKRQLDRIIAKLQSKEYSQY
B7: DCD (protein, UniProt P81605 20-110, looked up)
Dermcidin: YDPEAASAPGSGNPCHEASAAQKENAGEDPGLARQAPKPRKQRSSLLEKGLDGAKKAVGGLGKLGKDAVEDLESVGKGAVHDVKDVLDSVL
B8: FUS (protein, UniProt P35637 1-526, looked up)
RNA-binding protein FUS: MASNDYTQQATQSYGAYPTQPGQGYSQQSSQPYGQQSYSGYSQSTDTSGYGQSSYSSYGQSQNTGYGTQSTPQGYGSTGGYGSSQSSQSSYGQQSSYPGYGQQPAPSSTSGSYGSSSQSSSYGQPQSGSYSQQPSYGGQQQSYGQQQSYNPPQGYGQQNQYNSSSGGGGGGGGGGNYGQDQSSMSSGGGSGGGYGNQDQSGGGGSGGYGQQDRGGRGRGGSGGGGGGGGGGYNRSSGGYEPRGRGGGRGGRGGMGGSDRGGFNKFGGPRDQGSRHDSEQDNSDNNTIFVQGLGENVTIESVADYFKQIGIIKTNKKTGQPMINLYTDRETGKLKGEATVSFDDPPSAKAAIDWFDGKEFSGNPIKVSFATRRADFNRGGGNGRGGRGRGGPMGRGGYGGGGSGGGGRGGFPSGGGGGGGQQRAGDWKCPNPTCENMNFSWRNECNQCKAPKPDGPGGGPGGSHMGGNYGDDRRGGRGGYDRGGYRGRGGDRGGFRGGRGGGDRGGFGPGKMDSRGEHRQDRRERPY
B9: VAPA (protein, UniProt Q9P0L0 2-249, looked up)
Vesicle-associated membrane …: ASASGAMAKHEQILVLDPPTDLKFKGPFTDVVTTNLKLRNPSDRKVCFKVKTTAPRRYCVRPNSGIIDPGSTVTVSVMLQPFDYDPNEKSKHKFMVQTIFAPPNTSDMEAVWKEAKPDELMDSKLRCVFEMPNENDKLNDMEPSKAVPLNASKQDGPMPKPHSVSLNDTETRKLMEECKRLQGEMMKLSEENRHLRDEGLRLRKVAHSDKPGSTSTASFRDNVTSPLPSLLVVIAAIFIGFFLGKFIL

system: GFP-14-3-3β and its binding proteins; experiment: GFP-14-3-3β co-IP with LC-MS/MS label-free quantification, untreated versus PP1c-treated; set-up: species or system human; conditions: GFP-14-3-3β co-IP LC-MS/MS; PP1 vs untreated; student's t-test; label-free quantification, 3 replicates each

Point of comparison: B5, “Difference (log2), PP1 vs untreated” value -0.5492 log2. Against it:
- B1 — lower, -0.5793 log2
- B2 — lower, -0.6423 log2
- B3 — higher, -0.541 log2
- B4 — lower, -0.5886 log2
- B6 — lower, -0.5557 log2
- B7 — lower, -0.6713 log2
- B8 — higher, -0.548 log2

same assay, conditions: log2 difference; pairwise comparison PP1 vs untreated, label-free quantification, 3 replicates each

With B9 the “Difference (log2), PP1 vs untreated” value was 1.6514.

system: GFP-14-3-3β; experiment: GFP-14-3-3β co-IP with LC-MS/MS, untreated GFP-14-3-3β versus GFP control (14-3-3 interactome); type: binding, human; conditions: GFP-14-3-3β co-IP LC-MS/MS; untreated vs GFP; student's t-test; label-free quantification, 3 replicates each

Point of comparison: B8, “Difference (log2), untreated vs GFP” value -0.2742 log2. Against it:
- B1 — higher, 0.9373 log2
- B2 — higher, 1.65 log2
- B3 — higher, 1.078 log2
- B4 — higher, 1.275 log2
- B5 — higher, 2.447 log2
- B6 — higher, 1.871 log2
- B7 — lower, -1.7359 log2

same assay, conditions: log2 difference; pairwise comparison untreated vs GFP, label-free quantification, 3 replicates each

With B9 the “Difference (log2), untreated vs GFP” value was -1.034.
